B1: GST-Cdc42 (natural protein)
chain: not shown
notes: Cdc42, Rho GTPase of budding yeast; source: E. coli BL21 (DE3), purified
B2: GST-Cdc42-Q61L (natural protein)
chain: not shown
notes: Cdc42, Rho GTPase of budding yeast, nucleotide-locked mutant Q61L; source: E. coli BL21 (DE3), purified
B3: GST-Cdc42-D57Y (natural protein)
chain: not shown
notes: Cdc42, Rho GTPase of budding yeast, nucleotide-locked mutant D57Y; source: E. coli BL21 (DE3), purified
B4: GST-Rho1 (natural protein, S. cerevisiae, UniProt P06780 1-209, looked up)
chain: MSQQVGNSIRRKLVIVGDGACGKTCLLIVFSKGQFPEVYVPTVFENYVADVEVDGRRVELALWDTAGQEDYDRLRPLSYPDSNVVLICFSIDLPDSLENVQEKWIAEVLHFCQGVPIILVGCKVDLRNDPQTIEQLRQEGQQPVTSQEGQSVADQIGATGYYECSAKTGYGVREVFEAATRASLMGKSKTNGKAKKNTTEKKKKKCVLL
notes: Rho1, Rho GTPase of budding yeast; source: E. coli BL21 (DE3), purified
B5: GST-Rho1-G22A (natural protein, S. cerevisiae, UniProt P06780 1-209, looked up)
chain: MSQQVGNSIRRKLVIVGDGACAKTCLLIVFSKGQFPEVYVPTVFENYVADVEVDGRRVELALWDTAGQEDYDRLRPLSYPDSNVVLICFSIDLPDSLENVQEKWIAEVLHFCQGVPIILVGCKVDLRNDPQTIEQLRQEGQQPVTSQEGQSVADQIGATGYYECSAKTGYGVREVFEAATRASLMGKSKTNGKAKKNTTEKKKKKCVLL
notes: Rho1, Rho GTPase of budding yeast, nucleotide-locked mutant G22A; source: E. coli BL21 (DE3), purified
B6: GST-Rho1-G19V (natural protein, S. cerevisiae, UniProt P06780 1-209, looked up)
chain: MSQQVGNSIRRKLVIVGDVACGKTCLLIVFSKGQFPEVYVPTVFENYVADVEVDGRRVELALWDTAGQEDYDRLRPLSYPDSNVVLICFSIDLPDSLENVQEKWIAEVLHFCQGVPIILVGCKVDLRNDPQTIEQLRQEGQQPVTSQEGQSVADQIGATGYYECSAKTGYGVREVFEAATRASLMGKSKTNGKAKKNTTEKKKKKCVLL
notes: Rho1, Rho GTPase of budding yeast, nucleotide-locked mutant G19V; source: E. coli BL21 (DE3), purified

Each binder was assayed against T1, 6His-Gps1-1-290 (S. cerevisiae, UniProt Q99299 1-290) (assay: pull-down; 6His-Gps1-1-290 bound to Ni-NTA agarose beads, incubated with GST or GST fusion proteins 1 h at 4°C in 50 mM Tris-HCl pH 7.4, 10% glycerol, 100 mM NaCl, 1 mM EDTA, 1 mM DTT, 0.5% NP-40; SDS-PAGE and Western blotting). Conditions: both partners purified.
T1 construct: Gps1, budding yeast, ORF YPL158C, amino acids 1-290; also called 6His-GPS1 (amino acids 1-290); source: E. coli BL21 (DE3), purified (Ni-NTA agarose)
T1 sequence (looked up): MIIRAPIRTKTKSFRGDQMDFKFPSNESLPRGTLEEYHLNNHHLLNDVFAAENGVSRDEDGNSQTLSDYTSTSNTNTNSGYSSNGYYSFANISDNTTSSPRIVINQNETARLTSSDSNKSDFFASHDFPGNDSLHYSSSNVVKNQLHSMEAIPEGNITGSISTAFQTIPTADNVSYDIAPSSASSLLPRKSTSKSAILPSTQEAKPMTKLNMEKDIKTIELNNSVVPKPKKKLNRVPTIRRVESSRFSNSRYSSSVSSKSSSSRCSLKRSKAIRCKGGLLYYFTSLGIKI

Binding result, binds:
B1, B2, B3, B4, B5, B6

Source: paper PMC3582507, “A Safeguard Mechanism Regulates Rho GTPases to Coordinate Cytokinesis with the Establishment of Cell Polarity” (PLoS Biology, 2013)
